Test results as given in patent publication US8663642B2, “Anti-CD70 antibody-drug conjugates and their use for the treatment and prevention of cancer and immune disorders” (priority 2003, dated 2014).

Tests used:
[1] = system: CD70-expressing multiple myeloma cells; assay: Cytotoxic activity against multiple myeloma cell lines (panel); type: cell-based, human
Protocol: Cell surface CD70 expression was evaluated in a panel of multiple myeloma cell lines (Table 3). Copy number of CD70 molecules expressed by each cell line was determined by quantitative flow cytometry using the QIFIKit® (Dako, Carpinteria, Calif.). Response of these cells to anti-CD70 ADC-mediated cytotoxicity was determined.

[2] = system: Hodgkin's disease cell lines; assay: Cytotoxic activity against Hodgkin's disease cell lines (panel); type: cell-based, human
Protocol: Cell surface CD70 expression was also evaluated in panels of Hodgkin's disease (Table 4) and glioblastoma cell lines (Table 5). The copy number of CD70 molecules expressed by each cell line was determined by quantitative flow cytometry using the QIFIKit® (Dako, Carpinteria, Calif.). The response of these cells to anti-CD70 ADC-mediated cytotoxicity was determined.

B1: c1F6-vcMMAF4: chimeric 1F6 (c1F6)-vcMMAF4 anti-CD70 ADC (conjugate)
VH: QIQLVQSGPEVKKPGETVKISCKASGYTFTNYGMNWVKQAPGKGLKWMGWINTYTGEPTYADAFKGRFAFSLETSASTAYLQINNLKNEDTATYFCARDYGDYGMDYWGQGTSVTVSS
VL: DIVLTQSPASLAVSLGQRATISCRASKSVSTSGYSFMHWYQQKPGQPPKLLIYLASNLESGVPARFSGSGSGTDFTLNIHPVEEEDAATYYCQHSREVPWTFGGGTKLEIKR
modifications: non-natural residues
notes: chimeric 1F6 (c1F6)-vcMMAF4 anti-CD70 ADC
IC50 values, range over the panel [1]: 1.2 to 160 ng/mL
IC50 values, range over the panel [2]: 0.41 to 42 ng/mL
